B1: SFRS1 (parent)
chain: YSPRRSRGSPRYSPRHSRSRSRT

This is an account of results in the supplement of paper PMC10567573.
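Further: lentivirally expressed fusions sorted by FACS into six bins by GFP to DsRed ratio, PSI derived from sequencing read proportions per bin multiplied by bin number.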

The data set covers variants of B1. In words: protein stability index of a GFP-peptide fusion (GPS, HEK-293T) (PSI 1-6); higher = more stable. Conditions: c terminus: native.
Take YSPRLSRGSPRYSPRHSRSRSRT [R5L]: the protein stability index is 2.58.
On to YSPRYSRGSPRYSPRHSRSRSRT [R5Y], for which the protein stability index worked out at 3.01.
YSPRESRGSPRYSPRHSRSRSRT [R5E]: the protein stability index came to 3.54.
With YSPRRSRGSFRYSPRHSRSRSRT [P10F], the protein stability index was 3.07.
Consider YSPRRSRGSVRYSPRHSRSRSRT [P10V], for which the protein stability index is 3.69.
On to YSPRRSRGSKRYSPRHSRSRSRT [P10K], for which the protein stability index came to 4.4.
As for YSPRRSRGSQRYSPRHSRSRSRT [P10Q], the protein stability index worked out at 3.
The result for YSPRRSRGSRRYSPRHSRSRSRT [P10R] reads 4.2; that for YSPRRSRGSNRYSPRHSRSRSRT [P10N], 4.31; that for YSPRRSRGSCRYSPRHSRSRSRT [P10C], 3.45.
Consider YSPRRSRGSIRYSPRHSRSRSRT [P10I], for which the protein stability index was 3.41.
As to YSPRRSRGSDRYSPRHSRSRSRT [P10D], the protein stability index was 4.25.
As for YSPRRSRGSERYSPRHSRSRSRT [P10E], the protein stability index was determined as 3.6.
The result for YSPRRSRGSSRYSPRHSRSRSRT [P10S] reads 4.35; that for YSPRRSRGSARYSPRHSRSRSRT [P10A], 4; that for YSPRRSRGSHRYSPRHSRSRSRT [P10H], 4.38.
For the variant YSPRRSRGSLRYSPRHSRSRSRT [P10L], the protein stability index was determined as 3.61.
Take YSPRRSRGSYRYSPRHSRSRSRT [P10Y]: the protein stability index worked out at 3.67.
For YSPRRSRGSGRYSPRHSRSRSRT [P10G], the protein stability index worked out at 3.37.
In the case of YSPRRSRGSMRYSPRHSRSRSRT [P10M], the protein stability index turned out to be 3.73.
YSPRRSRGSTRYSPRHSRSRSRT [P10T]: the protein stability index turned out to be 4.51.
The result for YSPRRSRGSWRYSPRHSRSRSRT [P10W] reads 3.4; that for YSPRRSRGSPRFSPRHSRSRSRT [Y12F], 3.7.
With YSPRRSRGSPRISPRHSRSRSRT [Y12I], the protein stability index stood at 3.72.
The result for YSPRRSRGSPRHSPRHSRSRSRT [Y12H] reads 3.28.
Take YSPRRSRGSPRDSPRHSRSRSRT [Y12D]: the protein stability index was found to be 4.38.
On to YSPRRSRGSPRWSPRHSRSRSRT [Y12W], for which the protein stability index turned out to be 4.43.
Consider YSPRRSRGSPRTSPRHSRSRSRT [Y12T], for which the protein stability index turned out to be 4.27.
Turning to YSPRRSRGSPRKSPRHSRSRSRT [Y12K], the protein stability index worked out at 3.73.
As for YSPRRSRGSPRVSPRHSRSRSRT [Y12V], the protein stability index came to 4.18.
Regarding YSPRRSRGSPRASPRHSRSRSRT [Y12A], the protein stability index was determined as 3.89.
The result for YSPRRSRGSPRNSPRHSRSRSRT [Y12N] reads 4.21; that for YSPRRSRGSPRMSPRHSRSRSRT [Y12M], 3.62.
The value for YSPRRSRGSPRQSPRHSRSRSRT [Y12Q] was 4.43; that for YSPRRSRGSPRLSPRHSRSRSRT [Y12L] was 4.03.
As for YSPRRSRGSPRPSPRHSRSRSRT [Y12P], the protein stability index was found to be 3.99.
Consider YSPRRSRGSPRRSPRHSRSRSRT [Y12R], for which the protein stability index is 4.25.
Take YSPRRSRGSPRSSPRHSRSRSRT [Y12S]: the protein stability index is 4.17.
For the variant YSPRRSRGSPRESPRHSRSRSRT [Y12E], the protein stability index was 4.47.
For the variant YSPRRSRGSPRCSPRHSRSRSRT [Y12C], the protein stability index was 3.61.
Take YSPRRSRGSPMYSPRHSRSRSRT [R11M]: the protein stability index came out at 3.47.
As to YSPRRSRGSPDYSPRHSRSRSRT [R11D], the protein stability index was 2.31.
The value for YSPRRSRGSPYYSPRHSRSRSRT [R11Y] was 2.54; that for YSPRRSRGSPEYSPRHSRSRSRT [R11E] was 2.39; that for YSPRRSRGSPTYSPRHSRSRSRT [R11T] was 3.29.
In the case of YSPRRSRGSPNYSPRHSRSRSRT [R11N], the protein stability index is 3.98.
Consider YSPRRSRGSPQYSPRHSRSRSRT [R11Q], for which the protein stability index came to 4.39.
For YSPRRSRGSPGYSPRHSRSRSRT [R11G], the protein stability index worked out at 3.5.
In the case of YSPRRSRGSPWYSPRHSRSRSRT [R11W], the protein stability index was 1.79.
The value for YSPRRSRGSPPYSPRHSRSRSRT [R11P] was 3.44.
Turning to YSPRRSRGSPIYSPRHSRSRSRT [R11I], the protein stability index came to 2.73.
For YSPRRSRGSPSYSPRHSRSRSRT [R11S], the protein stability index came out at 3.3.
Turning to YSPRRSRGSPLYSPRHSRSRSRT [R11L], the protein stability index is 2.85.
With YSPRRSRGSPFYSPRHSRSRSRT [R11F], the protein stability index came to 2.8.
Regarding YSPRRSRGSPVYSPRHSRSRSRT [R11V], the protein stability index stood at 3.05.
In the case of YSPRRSRGSPHYSPRHSRSRSRT [R11H], the protein stability index was 3.22.
The result for YSPRRSRGSPAYSPRHSRSRSRT [R11A] reads 3.25; that for YSPRRSRGSPKYSPRHSRSRSRT [R11K], 3.85.
On to YSPRRSRGSPCYSPRHSRSRSRT [R11C], for which the protein stability index was found to be 2.36.
Consider YSPRRSRGQPRYSPRHSRSRSRT [S9Q], for which the protein stability index turned out to be 4.24.
The result for YSPRRSRGPPRYSPRHSRSRSRT [S9P] reads 3.86; that for YSPRRSRGMPRYSPRHSRSRSRT [S9M], 3.07.
The result for YSPRRSRGWPRYSPRHSRSRSRT [S9W] reads 2.29.
As to YSPRRSRGGPRYSPRHSRSRSRT [S9G], the protein stability index was found to be 4.24.
The result for YSPRRSRGHPRYSPRHSRSRSRT [S9H] reads 3.16; that for YSPRRSRGNPRYSPRHSRSRSRT [S9N], 4.23; that for YSPRRSRGYPRYSPRHSRSRSRT [S9Y], 3.43.
Take YSPRRSRGDPRYSPRHSRSRSRT [S9D]: the protein stability index is 3.99.
For the variant YSPRRSRGKPRYSPRHSRSRSRT [S9K], the protein stability index was 3.83.
The value for YSPRRSRGTPRYSPRHSRSRSRT [S9T] was 3.74; that for YSPRRSRGVPRYSPRHSRSRSRT [S9V] was 3.8; that for YSPRRSRGCPRYSPRHSRSRSRT [S9C] was 1.83.
For YSPRRSRGEPRYSPRHSRSRSRT [S9E], the protein stability index was 3.71.
The value for YSPRRSRGAPRYSPRHSRSRSRT [S9A] was 3.94.
The result for YSPRRSRGIPRYSPRHSRSRSRT [S9I] reads 3.1; that for YSPRRSRGFPRYSPRHSRSRSRT [S9F], 3.35; that for YSPRRSRGRPRYSPRHSRSRSRT [S9R], 4.37.
The value for YSPRRSRGLPRYSPRHSRSRSRT [S9L] was 3.38.
Regarding YSPRRSIGSPRYSPRHSRSRSRT [R7I], the protein stability index amounted to 1.66.
As for YSPRRSYGSPRYSPRHSRSRSRT [R7Y], the protein stability index is 3.38.
YSPRRSNGSPRYSPRHSRSRSRT [R7N]: the protein stability index stood at 2.92.
For YSPRRSLGSPRYSPRHSRSRSRT [R7L], the protein stability index was found to be 2.03.
Regarding YSPRRSPGSPRYSPRHSRSRSRT [R7P], the protein stability index was 2.91.
Turning to YSPRRSTGSPRYSPRHSRSRSRT [R7T], the protein stability index was found to be 3.13.
Regarding YSPRRSDGSPRYSPRHSRSRSRT [R7D], the protein stability index was found to be 3.22.
Turning to YSPRRSWGSPRYSPRHSRSRSRT [R7W], the protein stability index was 1.95.
With YSPRRSAGSPRYSPRHSRSRSRT [R7A], the protein stability index worked out at 2.97.
For the variant YSPRRSHGSPRYSPRHSRSRSRT [R7H], the protein stability index worked out at 2.61.
As for YSPRRSSGSPRYSPRHSRSRSRT [R7S], the protein stability index stood at 3.4.
As for YSPRRSCGSPRYSPRHSRSRSRT [R7C], the protein stability index is 1.95.
In the case of YSPRRSGGSPRYSPRHSRSRSRT [R7G], the protein stability index came to 2.47.
As to YSPRRSQGSPRYSPRHSRSRSRT [R7Q], the protein stability index was 3.54.
On to YSPRRSFGSPRYSPRHSRSRSRT [R7F], for which the protein stability index worked out at 2.43.
As to YSPRRSEGSPRYSPRHSRSRSRT [R7E], the protein stability index came out at 2.15.
As for YSPRRSMGSPRYSPRHSRSRSRT [R7M], the protein stability index was 2.47.
Consider YSPRRSKGSPRYSPRHSRSRSRT [R7K], for which the protein stability index worked out at 3.77.
In the case of YSPRRSVGSPRYSPRHSRSRSRT [R7V], the protein stability index was found to be 2.24.
